The target in series [1] is Asialo-ovomucoid.
In series [2] the target is Bovine submaxillary asialo-mucin (bovine).
The target in series [3] is Asialo-alpha 1 acid glycoprotein.
Series [4] deals with Bovine submaxillary mucin (bovine).
The target of series [5] is alpha 1 acid glycoprotein.
Series [6] concerns the target Ovomucoid.
For series [7], the target named is Fetuin (Bos taurus (Bovine)) (UniProt P12763).
Series [8] addresses Asialo-fetuin (Bos taurus (Bovine)) (UniProt P12763).
Series [9] addresses Bovine submaxillary asialo-mucin (bovine). The source holds these as a separate data set.
Series [10] deals with Asialo-alpha 1 acid glycoprotein. This is another data set of the same source.
For series [11], the target named is Bovine submaxillary mucin (bovine). The source holds these as a separate data set.
The target of series [12] is alpha 1 acid glycoprotein. The source holds these as a separate data set.
The target of series [13] is Fetuin (Bos taurus (Bovine)) (UniProt P12763). The source holds these as a separate data set.
Series [14] has as its target Asialo-fetuin (Bos taurus (Bovine)) (UniProt P12763). The source holds these as a separate data set.
The target of series [15] is Asialo-orosomucoid.
Substrate in series [16]: CC(=O)N[C@H]1[C@H]([C@H](O)[C@H](O)CO)O[C@](OP(=O)(O)OC[C@H]2O[C@@H](n3ccc(N)nc3=O)[C@H](O)[C@@H]2O)(C(=O)O)C[C@@H]1O
The experiment in a line: purified protein, by the assay type. The conditions noted are these: other: measured with N-acetyllactosamine as the acceptor; pH 6.0; 37.0 °C.

Substrate in series [17]: CC(=O)N[C@H]1C(O)O[C@H](CO)[C@@H](O[C@@H]2O[C@H](CO)[C@H](O)[C@H](O)[C@H]2O)[C@@H]1O
The experiment in a line: purified protein, by the assay type. The following applies: pH 6.0; 37.0 °C.

Substrate in series [18]: CC(=O)N[C@H]1[C@H]([C@H](O)[C@H](O)CO)O[C@](OP(=O)(O)OC[C@H]2O[C@@H](n3ccc(N)nc3=O)[C@H](O)[C@@H]2O)(C(=O)O)C[C@@H]1O
As to the kind of experiment: Sialyltransferase assay, kinetic parameters (Km) of the renatured enzyme. The format is biochemical, mouse. The following applies: other: renatured enzyme after removal of urea by dialysis; measured with N-acetyllactosamine as the acceptor.

Substrate in series [19]: CC(=O)N[C@H]1C(O)O[C@H](CO)[C@@H](O[C@@H]2O[C@H](CO)[C@H](O)[C@H](O)[C@H]2O)[C@@H]1O
As to the kind of experiment: cells, lysate or membranes named. The conditions noted are these: other: renatured enzyme after removal of urea by dialysis.

For “GalNAc alpha 2,6-sialyltransferase P-B3 (enzyme)”, the Acceptor substrate specificity, pmol/h/µl enzyme fraction ([14C]NeuAc transfer) is 1 pmol/h/µL in series [1]; 5.2 pmol/h/µL in series [2]; 1.2 pmol/h/µL in series [3]; 0.5 pmol/h/µL in series [4]; under 0.5 pmol/h in series [5]; under 0.5 pmol/h in [6]. Besides, the values for the Acceptor substrate specificity, pmol/h/µl enzyme fraction ([14C]NeuAc transfer) in series [7] and in series [8] were 28 pmol/h/µL and 35 pmol/h/µL, respectively.
One may read the Km as the concentration of substrate that gives half-maximal velocity. “Rat liver Gal beta 1,4GlcNAc alpha 2,6-sialyltransferase (from UniProt P13721) (enzyme)”: the Relative Activity to Gal β 1,4GlcNAc (% of the control) in series [9], in [11] and in series [13] was under 2 in each case. In addition, the Relative Activity to Gal β 1,4GlcNAc (relative to Gal β 1,4GlcNAc) in series [10] was 1; in [12], 0.1; in series [14] it was 0.97. For the same molecule, the Km in series [15] was determined as 200 µM.
Regarding “Renatured mouse Gal beta 1,4GlcNAc alpha 2,6-sialyltransferase (from UniProt Q64685) (enzyme)”, the Relative Activity to Gal β 1,4GlcNAc (% of the control) in series [9] and in [11] was under 2 throughout. For the same molecule, the Relative Activity to Gal β 1,4GlcNAc (relative to Gal β 1,4GlcNAc) in series [10] stood at 2.1; in [12] it was 0.1; in series [13], 0.25; in [14], 1.5. The Km in series [15] came out at 400 µM.

B1: Rat liver Gal β 1,4GlcNAc α 2,6-sialyltransferase (obtained from Sigma) (Rattus norvegicus) (protein)
chain: MIHTNLKKKFSLFILVFLLFAVICVWKKGSDYEALTLQAKEFQMPKSQEKVAMGSASQVVFSNSKQDPKEDIPILSYHRVTAKVKPQPSFQVWDKDSTYSKLNPRLLKIWRNYLNMNKYKVSYKGPGPGVKFSVEALRCHLRDHVNVSMIEATDFPFNTTEWEGYLPKENFRTKVGPWQRCAVVSSAGSLKNSQLGREIDNHDAVLRFNGAPTDNFQQDVGSKTTIRLMNSQLVTTEKRFLKDSLYTEGILIVWDPSVYHADIPKWYQKPDYNFFETYKSYRRLNPSQPFYILKPQMPWELWDIIQEISADLIQPNPPSSGMLGIIIMMTLCDQVDIYEFLPSKRKTDVCYYHQKFFDSACTMGAYHPLLFEKNMVKHLNEGTDEDIYLFGKATLSGFRNIRC
Take B1: the Michaelis-Menten constant (Km) stood at 40 µM in series [16] and 5000 µM in [17].

B2: mouse Gal β 1,4GlcNAc α 2,6-sialyltransferase, recombinant soluble form lacking the cytosolic and transmembrane domains (29th amino acid residue to C-terminal … (protein)
chain: GSDYEALTLQAKVFQMPKSQEKVAVGPAPQAVFSNSKQDPKEGVQILSYPRVTAKVKPQPSLQVWDKDSTYSKLNPRLLKIWRNYLNMNKYKVSYKGPGPGVKFSVEALRCHLRDHVNVSMIEATDFPFNTTEWEGYLPKENFRTKAGPWHKCAVVSSAGSLKNSQLGREIDNHDAVLRFNGAPTDNFQQDVGTKTTIRLVNSQLVTTEKRFLKDSLYTEGILILWDPSVYHADIPQWYQKPDYNFFETYKSYRRLHPSQPFYILKPQMPWELWDIIQEISPDLIQPNPPSSGMLGIIIMMTLCDQVDIYEFLPSKRKTDVCYYHQKFFDSACTMGAYHPLLFEKNMVKHLNEGTDEDIYLFGKATLSGFRNNRC
B2: the Km stood at 80 µM in series [18] and 6500 µM in series [19].

These data come from patent publication US5854042A, “Sugar-chain synthetase and process for producing the same” (The Institute of Physical and Chemical Research, priority 1993, dated 1998).
